Data on 15 molecules can be found in patent US20230312651A1, “Cyclic Peptide, Peptide Complex, and Drug Composition Containing Said Cyclic Peptide and/or Said Peptide Complex” (The University of Tokyo, priority 2020, published 2023).

To fix the notation:
B1: SEQ ID NO 12 (peptide)
peptide: Ac-YRIHPWITTYRCGSGSGS
modifications: thioether (positions not given here); not fully specified (residue 1, bridges)
notes: In the selection it stood as a peptide-mRNA/cDNA conjugate joined through a puromycin linker
B2: SEQ ID NO 13 (peptide)
peptide: Ac-YRLHQWINTFRCGSGSGS
modifications: thioether (positions not given here); not fully specified (residue 1, bridges)
notes: as for B1
B3: SEQ ID NO 9 (peptide)
peptide: Ac-YAHEGYKNSAFWCGSGSGS
modifications: thioether (positions not given here); not fully specified (residue 1, bridges)
notes: as for B1
B4: SEQ ID NO 10 (peptide)
peptide: Ac-YRFWQTPRFRLCGSGSGS
modifications: thioether (positions not given here); not fully specified (residue 1, bridges)
notes: as for B1
B5: SEQ ID NO 7 (peptide)
peptide: Ac-YLRPRYKFWCGSGSGS
modifications: thioether (positions not given here); not fully specified (residue 1, bridges)
notes: as for B1
B6: SEQ ID NO 8 (peptide)
peptide: Ac-YLQPKFKFWCGSGSGS
modifications: thioether (positions not given here); not fully specified (residue 1, bridges)
notes: as for B1
B7: SEQ ID NO 11 (peptide)
peptide: Ac-YKYKFWAYIPTNCGSGSGS
modifications: thioether (positions not given here); not fully specified (residue 1, bridges)
notes: as for B1
B8: SEQ ID NO 1 (peptide)
peptide: Ac-YRHNSYEASAFWCGSGSGS
modifications: thioether (positions not given here); not fully specified (residue 1, bridges)
notes: as for B1
B9: SEQ ID NO 2 (peptide)
peptide: Ac-YRHNSYKASAFWCGSGSGS
modifications: thioether (positions not given here); not fully specified (residue 1, bridges)
notes: as for B1
B10: SEQ ID NO 4 (peptide)
peptide: Ac-YRHDSYEASAFWCGSGSGS
modifications: thioether (positions not given here); not fully specified (residue 1, bridges)
notes: as for B1
B11: SEQ ID NO 3 (peptide)
peptide: Ac-YRHSSYEASAFWCGSGSGS
modifications: thioether (positions not given here); not fully specified (residue 1, bridges)
notes: as for B1
B12: SEQ ID NO 6 (peptide)
peptide: Ac-YRHNSYEASAFCCGSGSGS
modifications: thioether (positions not given here); not fully specified (residue 1, bridges)
notes: as for B1
B13: SEQ ID NO 5 (peptide)
peptide: Ac-YRHNSYEASTFWCGSGSGS
modifications: thioether (positions not given here); not fully specified (residue 1, bridges)
notes: as for B1

Entries after “also recorded” stand apart in the source; their conditions may differ. Starred links: 1 amine or outer side, 2 acyl side, 3 side chain; linkers in the order of their positions; H or OH if unused. Positions of bridges follow the written chain, without caps; N, C: chain ends. Non-standard residues stand in square brackets, D forms with d. Chains are numbered I, II in the order given. No end group written: not given here. NH(CH2CH2O)6CH2CO = O=C(COCCOCCOCCOCCOCCOCCN[*:1])[*:2]; Dap = NC[C@H](N)C(=O)O

For one test, the system named is Erk½. As to the kind of experiment: Western blot of phosphorylated Erk½ in primary hippocampal neurons. It is filed as cell-based, mouse. To be noted: ANA-12 100 µM added 30 minutes before 1 nM DiTrbL3; p<0.01. The method, then: (§1) After washing with 0.1 M PBS twice, cells were lysed in a radio-immunoprecipitation assay (RIPA) buffer containing 50 mM Tris-HCI (pH 7.4), 150 mM NaCl, 2 mM EDTA, 1% Nonidet P-40, 0.5% Na-deoxycholate, 0.1% SDS, 50 mM NaF, 0.2 mM Na3VO4, 10 µg/mL aprotinin, 10 µg/mL leupeptin, and 1 mM phenylmethylsulfonyl fluoride on ice for 30 minutes. After ultrasonic treatment and centrifugation at 20,000 ×g for 30 minutes, the supernatant was subjected to SDS-PAGE. Protein amount was quantified using Bicinchoninic Acid Kit (BCA-1, Sigma).
(§2) The cell lysate (protein amount: 20 µg in P-TrkB, 10 µg in TrkB, and 5 µg in Akt and Erk) was separated using 8% polyacrylamide gel and transferred to a polyvinylidene difluoride membrane (Merck Millipore, Massachusetts, USA). […]
(§3) Finally, after the resulting membrane was washed with TBST, an immune-positive bands were detected by a chemiluminescence method using a Luminata Crescendo HPR substrate (Merck Millipore). The relative phosphorylation level of each kinase was calculated as a ratio of phosphorylated kinase/all kinases.
(In general: A western blot detects proteins with antibodies after separation by electrophoresis.)
Take `O=C(Nc1ccccc1C(=O)NC1CCCCNC1=O)c1cc2ccccc2s1` (stereo not drawn) [ANA-12, reference compound]: the “phosphorylation of Erk½ induced by DiTrbL3” value is on record as “the phosphorylation activity decreased; also recorded: suppressed”.

The target of a further test is extracellular domain of hTrkA (Homo sapiens, UniProt P04629). As to the kind of experiment: SPR binding kinetics (Biacore T200), hTrkA. Further details: the extracellular domain of hTrkA, hTrkC, and hTrkB. As to conditions: Homodimer (peptide complex), 1:1 binding model. The method, then: (§4) With respect to the binding kinetics (binding affinity (dissociation constant) KD) of the cyclic peptides towards the extracellular domain of hTrkA, hTrkC, and hTrkB (which will hereinafter be called “hTrkA-C proteins”, collectively) immobilized on a sensor chip via a His6-tag, quantitative measurements making use of surface plasmon resonance (SPR) were carried out to evaluate the binding intensity and selectivity of the cyclic peptide to hTrkB, compared with that to hTrkA and hTrkC.
Chain of extracellular domain of hTrkA (P04629 33-423 limits assumed): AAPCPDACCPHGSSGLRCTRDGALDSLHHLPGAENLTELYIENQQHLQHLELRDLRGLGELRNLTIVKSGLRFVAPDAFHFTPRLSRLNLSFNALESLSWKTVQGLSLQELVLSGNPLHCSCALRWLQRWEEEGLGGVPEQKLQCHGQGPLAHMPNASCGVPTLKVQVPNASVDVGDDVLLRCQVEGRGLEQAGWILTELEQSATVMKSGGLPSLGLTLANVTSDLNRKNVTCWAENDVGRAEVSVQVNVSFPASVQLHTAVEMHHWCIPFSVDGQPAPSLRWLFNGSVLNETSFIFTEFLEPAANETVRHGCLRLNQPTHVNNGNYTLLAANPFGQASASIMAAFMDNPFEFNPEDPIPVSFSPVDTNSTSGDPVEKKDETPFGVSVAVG
(§5) The binding kinetics of each peptide towards the hTrkA-C proteins were determined using Biacore T200 (GE Healthcare). The buffer used was HBS-P+ (10 mM HEPES, 150 mM NaCl, and 0.05 vol% surfactant P20, pH 7.4) containing 0.1 vol% DMSO and 1 mM b-dodecyl-maltoside. 100 nM hTrkA-C proteins were immobilized on a Ni^2+ treated NTA chip in accordance with the manufacturer’s instructions (baseline response 1000 to 3000 refraction units). Peptides were injected as an analyte at a flow rate of […] and binding kinetics was modelled using a 1:1 binding model.
Consider “I: {CH2CO}-YRHNSYEASAFWCGSGSGS[NH(CH2CH2O)6CH2CO][Dap]-NH2 / II: {CH2CO}-YRHNSYEASAFWCGSGSGS[NH(CH2CH2O)6CH2CO] (amide I:21-II:C; thioether I:N-I:13, II:N-II:13) [DiTrbL1]”, for which the “binding affinity KD, TrkA” value is recorded as “N.B”.

For another test, the target named is T1, extracellular domain of hTrkC (Homo sapiens, UniProt Q16288).
T1 construct: the extracellular domain of hTrkA, hTrkC, and hTrkB
T1 sequence (Q16288 32-429 limits assumed): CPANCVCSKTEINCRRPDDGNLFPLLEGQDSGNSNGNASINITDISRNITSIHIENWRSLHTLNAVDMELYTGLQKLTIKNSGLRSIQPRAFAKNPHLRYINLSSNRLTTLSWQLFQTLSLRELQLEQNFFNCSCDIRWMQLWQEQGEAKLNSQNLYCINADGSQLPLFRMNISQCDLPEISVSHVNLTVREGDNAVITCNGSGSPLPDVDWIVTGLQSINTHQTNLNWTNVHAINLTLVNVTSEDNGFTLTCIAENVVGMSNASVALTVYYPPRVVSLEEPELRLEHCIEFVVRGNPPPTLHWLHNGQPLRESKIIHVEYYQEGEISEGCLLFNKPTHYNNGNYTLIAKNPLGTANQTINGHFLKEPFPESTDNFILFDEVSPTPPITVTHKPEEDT
Kind of test: SPR binding kinetics (Biacore T200), hTrkC. To be noted: Homodimer (peptide complex), 1:1 binding model. The method, then:
as §4, §5
“I: {CH2CO}-YRHNSYEASAFWCGSGSGS[NH(CH2CH2O)6CH2CO][Dap]-NH2 / II: {CH2CO}-YRHNSYEASAFWCGSGSGS[NH(CH2CH2O)6CH2CO] (amide I:21-II:C; thioether I:N-I:13, II:N-II:13) [DiTrbL1]”: the “binding affinity KD, TrkC” value was “N.B”.

The next test deals with T2, extracellular domain of hTrkB (human, UniProt Q16620 32-430).
T2 construct: extracellular domain; Immobilised on a Ni2+-treated NTA sensor chip through the His6-tag for SPR; fixed on His pulldown Dynabeads at 200 nM for the RaPID selection; also called human TrkB; TrkB extracellular domain; not shown: His6-tag
T2 sequence (Q16620 32-430): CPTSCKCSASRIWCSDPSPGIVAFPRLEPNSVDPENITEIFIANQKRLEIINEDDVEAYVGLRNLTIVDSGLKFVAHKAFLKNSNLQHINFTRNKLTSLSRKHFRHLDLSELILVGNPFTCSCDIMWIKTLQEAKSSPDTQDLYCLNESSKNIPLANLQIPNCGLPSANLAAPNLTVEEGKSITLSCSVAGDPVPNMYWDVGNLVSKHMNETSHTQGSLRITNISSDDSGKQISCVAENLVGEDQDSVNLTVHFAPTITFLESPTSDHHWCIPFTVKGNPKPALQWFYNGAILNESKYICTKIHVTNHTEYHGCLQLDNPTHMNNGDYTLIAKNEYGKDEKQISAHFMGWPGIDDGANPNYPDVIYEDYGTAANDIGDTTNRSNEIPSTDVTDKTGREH
As to the kind of experiment: RaPID affinity selection, 5 rounds, on beads carrying TrkB extracellular domain; sequencing.
Details: not given
The method, then: Next, the peptide-mRNA/cDNA conjugate libraries thus obtained were subjected to affinity selection. First, as control selection, the peptide-mRNA/cDNA conjugate libraries were passed three times through His pulldown Dynabeads (Life Technologies) (each passage for 10 minutes under the condition of 4° C.). The above process is called “pre-clearance” or negative selection and is performed to remove undesired binding to beads. […] The process is called “positive selection”.
By heating at 95° C. for 5 minutes, the cDNAs were eluted from the beads and a portion of the eluted cDNAs was evaluated by quantitative PCR using Sybr Green I and thermal cycler (LightCycler (Roche)). The remaining portion of the cDNAs was amplified by PCR and used for the transcription of the mRNA library used for affinity selection in the next round.
One round consisted of preparation of a library, pre-clearance, and positive selection, and the round was performed 5 times. […] The collected cDNAs were amplified by PCR, purified using a column (NucleoSpin (Machery-Nagel)), and sequenced using a high through-put sequencer (MiSeq (Illumina)). Data analysis was performed using a software (CLC Sequence Viewer 7 (Qiagen)).
Turning to B1, the binding result was “binds”.
Same read-out and setting: in the case of B2 it was “binds”; in that of B3, “binds”.
For the molecule B4, the binding result is given as “binds”.
For the molecule B5, the binding result is listed as “binds”.
Still for that read-out and setting: with B6 the entry was “binds”; with B7, “binds”; with B8, “binds”.
With B9, the binding result is listed as “binds”.
For B10, the binding result is on record as “binds”.
The same measure, in the same setting: in the case of B11 it was “binds”; in that of B12, “binds”; in that of B13, “binds”.

Another test deals with 40 RTKs (receptor tyrosine kinases). Kind of test: Phospho-RTK array evaluation (off-target activity). It is filed as cell-based, mouse. As to conditions: ANA-12 100 µM added 30 minutes before DiTrbL3 1 nM. The method, then:
Comprehensive study of the phosphorylated tyrosine kinase receptor was conducted using a phospho-RTK array in accordance with the manufacturer’s protocol (Proteome Profiler mouse Phospho-RTK Array Kit, ARY014, R&D Systems). The phosphorylation level was evaluated by pixel density and quantified by Image J Software.
As for `O=C(Nc1ccccc1C(=O)NC1CCCCNC1=O)c1cc2ccccc2s1` (stereo not drawn) [ANA-12, reference compound], the “TrkB phosphorylation signal induced by DiTrbL3, RTK array and densitometric analysis” value is “reduction in TrkB phosphorylation signal”.

The subject of another test is Akt. Kind of test: Western blot of phosphorylated Akt (S473) in primary hippocampal neurons. It is filed as cell-based, mouse. As to conditions: ANA-12 100 µM added 30 minutes before 1 nM DiTrbL3; p<0.05. The method, then: as §1, §2, §3
As for `O=C(Nc1ccccc1C(=O)NC1CCCCNC1=O)c1cc2ccccc2s1` (stereo not drawn) [ANA-12, reference compound], the “phosphorylation of Akt induced by DiTrbL3” value was “the phosphorylation activity decreased; also recorded: suppressed”.
